# Reference: US20190077883A1
# Target: GST-tagged human FcRn (human; Schistosoma japonicum) (UniProt P55899)
# Assay: ELISA pH 6.0, h9C12 variant captured on AdV5 hexon, GST-hFcRn detected with anti-GST-HRP
# Chain of GST-tagged human FcRn (human; Schistosoma japonicum) (P55899 24-297, chain 1 of 2): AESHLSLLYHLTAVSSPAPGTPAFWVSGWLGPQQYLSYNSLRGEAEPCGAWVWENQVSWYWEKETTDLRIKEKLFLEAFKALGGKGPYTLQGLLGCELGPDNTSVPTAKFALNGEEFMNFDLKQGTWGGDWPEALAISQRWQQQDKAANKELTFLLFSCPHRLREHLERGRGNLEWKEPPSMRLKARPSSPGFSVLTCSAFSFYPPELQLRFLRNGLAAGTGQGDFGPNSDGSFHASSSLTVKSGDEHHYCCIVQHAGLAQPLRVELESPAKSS
# Chain of GST-tagged human FcRn (human; Schistosoma japonicum) (P61769 21-119, chain 2 of 2, further chain): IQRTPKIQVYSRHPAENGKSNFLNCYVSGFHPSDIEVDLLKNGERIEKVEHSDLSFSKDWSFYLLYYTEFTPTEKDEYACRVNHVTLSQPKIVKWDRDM
binder,measurement,value
"h9C12 IgG3(b)-Q311R/N434W/M428E/R435H (antibody, part only; not given: variable domains, not shown: another chain or arm of the molecule) constant: ASTKGPSVFPLAPCSRSTSGGTAALGCLVKDYFPEPVTVSWNSGALTSGVHTFPAVLQSSGLYSLSSVVTVPSSSLGTQTYTCNVNHKPSNTKVDKRVELKTPLGDTTHTCPRCPEPKSCDTPPPCPRCPEPKSCDTPPPCPRCPEPKSCDTPPPCPRCPAPELLGGPSVFLFPPKPKDTLMISRTPEVTCVVVDVSHEDPEVQFKWYVDGVEVHNAKTKPREEQYNSTFRVVSVLTVLHRDWLNGKEYKCKVSNKALPAPIEKTISKTKGQPREPQVYTLPPSREEMTKNQVSLTCLVKGFYPSDIAVEWESSGQPENNYNTTPPMLDSDGSFFLYSKLTVDKSRWQQGNIFSCSVEHEALHWHFTQKSLSLSPGK",Fold change from WT (ELISA) pH 6.0,3 fold
